Data from paper PMC9352680, “A comprehensive thermodynamic model for RNA binding by the Saccharomyces cerevisiae Pumilio protein PUF4”.

T1: PUF4 RNA-binding domain (Saccharomyces cerevisiae, UniProt P25339 537-888)
T1 sequence: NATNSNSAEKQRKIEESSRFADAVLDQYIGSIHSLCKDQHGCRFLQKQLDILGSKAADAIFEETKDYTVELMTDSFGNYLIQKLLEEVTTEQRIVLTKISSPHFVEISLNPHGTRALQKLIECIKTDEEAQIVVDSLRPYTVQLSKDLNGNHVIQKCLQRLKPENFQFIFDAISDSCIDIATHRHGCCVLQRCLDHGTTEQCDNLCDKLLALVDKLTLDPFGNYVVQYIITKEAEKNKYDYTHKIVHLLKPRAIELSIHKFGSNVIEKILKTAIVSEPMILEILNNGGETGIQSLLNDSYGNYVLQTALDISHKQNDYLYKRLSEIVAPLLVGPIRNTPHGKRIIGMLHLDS


Molecular target: T1, PUF4 RNA-binding domain
Test: Mg; RNA-MaP; 20 mM Na-HEPES pH 7.4, 30 mM KOAc, 0.75 mM MgCl2, 0.1% Tween-20, 5% glycerol, 0.1 mg/mL BSA, 2 mM DTT; 25 C; 0.0125-409.6 nM protein
Conditions: tags: N-His6-TEV cleaved; C-SNAP kept, Cy3B-labelled; label: tethered on chip by stalled RNA polymerase

Binder | Kd [nM]
UCUCUUUCUUGUAUUUUAUUUCUCUU (ssRNA) [Id_iii_S1_P4E.8_K4.4_C4.3_H4.1_A4.2_F4.1_T4.2_[G10T]] | 2.43
UCUCUUUCUUAUAUAUUACUUCUCUU (ssRNA) [Id_iii_S1_P4E.6_K4.2_C4.3_H4.2_A4.1_F4.1_T4.2_[G10C]] | 15.9
UCUCUUUUUUGUAUAUUAGUUCUCUU (ssRNA) [Id_iii_S1_P4E.5_K4.1_C4.3_[C-2T]_H4.1_A4.1_F4.1_T4.2] | 0.395
UCUCUUUGUACACUAUAUAUCUCUU (ssRNA) [Id_iii_S1_P3E.7_K3.3_C3.3_[C-2G]_H3.3_A3.1_F3.1_T3.2] | 1.32
UCUCUUUUUUAUAUAUUAGUUCUCUU (ssRNA) [Id_iii_S1_P4E.6_K4.2_C4.3_[C-2T]_H4.2_A4.1_F4.1_T4.2] | 11
UCUCUUUAUUGUAAAUAUAUCUCUU (ssRNA) [Id_iii_S1_P3E.8_K3.4_C3.3_[C-2A]_H3.1_A3.2_F3.1_T3.2] | 18.2
UCUCUUUCUUAUAUAUUAAUUCUCUU (ssRNA) [Id_iii_S1_P4E.6_K4.2_C4.3_H4.2_A4.1_F4.1_T4.2_[G10A]] | 18.1
UCUCUUUAUUGUAUAUUAGUUCUCUU (ssRNA) [Id_iii_S1_P4E.5_K4.1_C4.3_[C-2A]_H4.1_A4.1_F4.1_T4.2] | 0.362
UCUCUUUCUUGUAAAUAAAUCUCUU (ssRNA) [Id_iii_S1_P3E.8_K3.4_C3.3_H3.1_A3.2_F3.1_T3.2_[T9A]] | 40.2
UCUCUUUGUGUCAUUAUCUCUU (ssRNA) [Ib_S1_P5E.1_K5.1_C5.1_H5.1_[A4G]_A5.1_[T6C]_F5.1_T5.1] | 30.7
UCUCUUACUUGUAAAUAUAUCUCUU (ssRNA) [Id_iii_S1_P3E.8_K3.4_C3.3_[T-3A]_H3.1_A3.2_F3.1_T3.2] | 25.7
UCUCUUUCGUAUAUAUAUAUCUCUU (ssRNA) [Id_iii_S1_P3E.6_K3.2_C3.3_[T-1G]_H3.2_A3.1_F3.1_T3.2] | 502
UCUCUUUUUACACUAUUAGUUCUCUU (ssRNA) [Id_iii_S1_P4E.7_K4.3_C4.3_[C-2T]_H4.3_A4.1_F4.1_T4.2] | 1680
UCUCUUUUUUGUAUUUUAGUUCUCUU (ssRNA) [Id_iii_S1_P4E.8_K4.4_C4.3_[C-2T]_H4.1_A4.2_F4.1_T4.2] | 1.81
UCUCUUUCAUAUAUAUAUAUCUCUU (ssRNA) [Id_iii_S1_P3E.6_K3.2_C3.3_[T-1A]_H3.2_A3.1_F3.1_T3.2] | 592
UCUCUUUCUUGUAUUUUAAUUCUCUU (ssRNA) [Id_iii_S1_P4E.8_K4.4_C4.3_H4.1_A4.2_F4.1_T4.2_[G10A]] | 3.62
UCUCUUUCUUGUAUAUUAUUUCUCUU (ssRNA) [Id_iii_S1_P4E.5_K4.1_C4.3_H4.1_A4.1_F4.1_T4.2_[G10T]] | 0.649
UCUCUUUCAUGUAUUUUAGUUCUCUU (ssRNA) [Id_iii_S1_P4E.8_K4.4_C4.3_[T-1A]_H4.1_A4.2_F4.1_T4.2] | 1.37
UCUCUUACUUAUAUAUAUAUCUCUU (ssRNA) [Id_iii_S1_P3E.6_K3.2_C3.3_[T-3A]_H3.2_A3.1_F3.1_T3.2] | 113
UCUCUUUCUUGUAUAUAUUUCUCUU (ssRNA) [Id_iii_S1_P3E.5_K3.1_C3.3_H3.1_A3.1_F3.1_T3.2_[A10T]] | 6.04
UCUCUUUUUUGUAAAUAUAUCUCUU (ssRNA) [Id_iii_S1_P3E.8_K3.4_C3.3_[C-2T]_H3.1_A3.2_F3.1_T3.2] | 17.6

Binder | Kd [nM]
UCUCUUUAUACACUAUAUAUCUCUU (ssRNA) [Id_iii_S1_P3E.7_K3.3_C3.3_[C-2A]_H3.3_A3.1_F3.1_T3.2] | 31.6
UCUCUUCCUUGUAAAUAUAUCUCUU (ssRNA) [Id_iii_S1_P3E.8_K3.4_C3.3_[T-3C]_H3.1_A3.2_F3.1_T3.2] | 16.5
UCUCUUUCUACACUAUACAUCUCUU (ssRNA) [Id_iii_S1_P3E.7_K3.3_C3.3_H3.3_A3.1_F3.1_T3.2_[T9C]] | 2260
UCUCUUUCCUGUAAAUAUAUCUCUU (ssRNA) [Id_iii_S1_P3E.8_K3.4_C3.3_[T-1C]_H3.1_A3.2_F3.1_T3.2] | 11.1
UCUCUUUCUUGUAAAUAUGUCUCUU (ssRNA) [Id_iii_S1_P3E.8_K3.4_C3.3_H3.1_A3.2_F3.1_T3.2_[A10G]] | 28.7
UCUCUUUCUUAUAUAUUAUUUCUCUU (ssRNA) [Id_iii_S1_P4E.6_K4.2_C4.3_H4.2_A4.1_F4.1_T4.2_[G10T]] | 15.1
UCUCUUUCAUGUAUAUUAGUUCUCUU (ssRNA) [Id_iii_S1_P4E.5_K4.1_C4.3_[T-1A]_H4.1_A4.1_F4.1_T4.2] | 0.332
UCUCUUUCGUGUAAAUAUAUCUCUU (ssRNA) [Id_iii_S1_P3E.8_K3.4_C3.3_[T-1G]_H3.1_A3.2_F3.1_T3.2] | 18.6
UCUCUUUGUUGUAUUUUAGUUCUCUU (ssRNA) [Id_iii_S1_P4E.8_K4.4_C4.3_[C-2G]_H4.1_A4.2_F4.1_T4.2] | 2.23
UCUCUUUGUUUCAUUAUCUCUU (ssRNA) [Ib_S1_P5E.1_K5.1_C5.1_H5.1_[A4T]_A5.1_[T6C]_F5.1_T5.1] | 24.4
UCUCUUUGUUUGAUUAUCUCUU (ssRNA) [Ib_S1_P5E.1_K5.1_C5.1_H5.1_[A4T]_A5.1_[T6G]_F5.1_T5.1] | 122
UCUCUUUUUUGUAAAAAUAUCUCUU (ssRNA) [Id_iii_S1_P3E.9_K3.5_C3.3_[C-2T]_H3.1_A3.2_F3.2_T3.2] | 78.2
UCUCUUUAUUAUAUAUAUAUCUCUU (ssRNA) [Id_iii_S1_P3E.6_K3.2_C3.3_[C-2A]_H3.2_A3.1_F3.1_T3.2] | 373
UCUCUUCCUUAUAUAUAUAUCUCUU (ssRNA) [Id_iii_S1_P3E.6_K3.2_C3.3_[T-3C]_H3.2_A3.1_F3.1_T3.2] | 364
UCUCUUUGUUGUAUAUUAGUUCUCUU (ssRNA) [Id_iii_S1_P4E.5_K4.1_C4.3_[C-2G]_H4.1_A4.1_F4.1_T4.2] | 0.332
UCUCUUUGUGUAAUUAUCUCUU (ssRNA) [Ib_S1_P5E.1_K5.1_C5.1_H5.1_[A4G]_A5.1_[T6A]_F5.1_T5.1] | 27.5
UCUCUUUCGUGUAUUUUAGUUCUCUU (ssRNA) [Id_iii_S1_P4E.8_K4.4_C4.3_[T-1G]_H4.1_A4.2_F4.1_T4.2] | 1.23
UCUCUUUUUACACUAUAUAUCUCUU (ssRNA) [Id_iii_S1_P3E.7_K3.3_C3.3_[C-2T]_H3.3_A3.1_F3.1_T3.2] | 2050
UCUCUUUCAACACUAUAUAUCUCUU (ssRNA) [Id_iii_S1_P3E.7_K3.3_C3.3_[T-1A]_H3.3_A3.1_F3.1_T3.2] | 1700
UCUCUUUCUACACUAUUAUUUCUCUU (ssRNA) [Id_iii_S1_P4E.7_K4.3_C4.3_H4.3_A4.1_F4.1_T4.2_[G10T]] | > 2300
UCUCUUGCUUAUAUAUAUAUCUCUU (ssRNA) [Id_iii_S1_P3E.6_K3.2_C3.3_[T-3G]_H3.2_A3.1_F3.1_T3.2] | 380

Binder | Kd [nM]
UCUCUUUCAUGUAAAUAUAUCUCUU (ssRNA) [Id_iii_S1_P3E.8_K3.4_C3.3_[T-1A]_H3.1_A3.2_F3.1_T3.2] | 19.7
UCUCUUUUUUAUAUAUAUAUCUCUU (ssRNA) [Id_iii_S1_P3E.6_K3.2_C3.3_[C-2T]_H3.2_A3.1_F3.1_T3.2] | 486
UCUCUUUGUACACUAUUAGUUCUCUU (ssRNA) [Id_iii_S1_P4E.7_K4.3_C4.3_[C-2G]_H4.3_A4.1_F4.1_T4.2] | 1.04
UCUCUUUCUUAUAUAUAUGUCUCUU (ssRNA) [Id_iii_S1_P3E.6_K3.2_C3.3_H3.2_A3.1_F3.1_T3.2_[A10G]] | 755
UCUCUUCCUUGUAUAUUAGUUCUCUU (ssRNA) [Id_iii_S1_P4E.5_K4.1_C4.3_[T-3C]_H4.1_A4.1_F4.1_T4.2] | 0.347
UCUCUUGCUUGUAAAUAUAUCUCUU (ssRNA) [Id_iii_S1_P3E.8_K3.4_C3.3_[T-3G]_H3.1_A3.2_F3.1_T3.2] | 20.2
UCUCUUUGUCUAAUUAUCUCUU (ssRNA) [Ib_S1_P5E.1_K5.1_C5.1_H5.1_[A4C]_A5.1_[T6A]_F5.1_T5.1] | 115
UCUCUUUCUUAUAUAUACAUCUCUU (ssRNA) [Id_iii_S1_P3E.6_K3.2_C3.3_H3.2_A3.1_F3.1_T3.2_[T9C]] | 972
UCUCUUUAUACACUAUUAGUUCUCUU (ssRNA) [Id_iii_S1_P4E.7_K4.3_C4.3_[C-2A]_H4.3_A4.1_F4.1_T4.2] | 39.2
UCUCUUUCUUAUAUAUUAGCUCUCUU (ssRNA) [Id_iii_S1_P4E.6_K4.2_C4.3_H4.2_A4.1_F4.1_T4.2_[T11C]] | 8.45
UCUCUUUGUCUCAUUAUCUCUU (ssRNA) [Ib_S1_P5E.1_K5.1_C5.1_H5.1_[A4C]_A5.1_[T6C]_F5.1_T5.1] | 35.9
UCUCUUUCUUGUAUUUUAGCUCUCUU (ssRNA) [Id_iii_S1_P4E.8_K4.4_C4.3_H4.1_A4.2_F4.1_T4.2_[T11C]] | 1.07
UCUCUUUCUACACUAUAUUUCUCUU (ssRNA) [Id_iii_S1_P3E.7_K3.3_C3.3_H3.3_A3.1_F3.1_T3.2_[A10T]] | 2010
UCUCUUUGUUGUAUUUAAGUUCUCUU (ssRNA) [Id_iii_S1_P4E.9_K4.5_C4.3_[C-2G]_H4.1_A4.2_F4.2_T4.2] | 155
UCUCUUACUACACUAUAUAUCUCUU (ssRNA) [Id_iii_S1_P3E.7_K3.3_C3.3_[T-3A]_H3.3_A3.1_F3.1_T3.2] | 900
UCUCUUUCUUGUAAAUAUCUCUCUU (ssRNA) [Id_iii_S1_P3E.8_K3.4_C3.3_H3.1_A3.2_F3.1_T3.2_[A10C]] | 27.6
UCUCUUUCUUGUAUAUUACUUCUCUU (ssRNA) [Id_iii_S1_P4E.5_K4.1_C4.3_H4.1_A4.1_F4.1_T4.2_[G10C]] | 1.02
UCUCUUUCUACACUAUUACUUCUCUU (ssRNA) [Id_iii_S1_P4E.7_K4.3_C4.3_H4.3_A4.1_F4.1_T4.2_[G10C]] | 2190
UCUCUUUCGUGUAUAUUAGUUCUCUU (ssRNA) [Id_iii_S1_P4E.5_K4.1_C4.3_[T-1G]_H4.1_A4.1_F4.1_T4.2] | 0.46
UCUCUUUCUACACUAUUAAUUCUCUU (ssRNA) [Id_iii_S1_P4E.7_K4.3_C4.3_H4.3_A4.1_F4.1_T4.2_[G10A]] | > 2300
